The source of these data is patent US9200040B2, “Specific binding agents of human angiopoietin-2” (Amgen Inc., priority 2001, dated 2015).

The target of one data set is T1, huAng2 (Homo sapiens, UniProt O15123).
T1 construct: purchased R&D Systems BNO12103A
T1 sequence (O15123 68-496 limits assumed): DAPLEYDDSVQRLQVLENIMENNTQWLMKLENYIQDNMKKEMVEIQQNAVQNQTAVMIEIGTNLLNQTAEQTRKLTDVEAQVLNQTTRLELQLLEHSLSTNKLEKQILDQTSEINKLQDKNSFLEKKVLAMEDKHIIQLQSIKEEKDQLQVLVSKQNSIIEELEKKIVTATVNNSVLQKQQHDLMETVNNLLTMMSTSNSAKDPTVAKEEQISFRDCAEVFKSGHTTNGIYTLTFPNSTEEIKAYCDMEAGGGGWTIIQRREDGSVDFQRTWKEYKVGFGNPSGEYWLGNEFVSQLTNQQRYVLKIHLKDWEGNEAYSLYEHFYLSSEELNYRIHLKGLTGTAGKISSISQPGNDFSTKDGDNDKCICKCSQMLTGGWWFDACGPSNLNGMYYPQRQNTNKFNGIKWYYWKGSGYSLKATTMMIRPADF
As to the kind of experiment: BIAcore binding to huAng2 (Example 9). The conditions noted are these: Table 8. How it is done: Six samples of anti-Ang2 peptibodies were tested for their binding activity to huAng2 (R&D Systems, BNO12103A) on BIAcore. Protein G was immobilized to a CM5 chip according to the standard amine-coupling protocol (BIAcore Inc.), and the peptibodies were then injected over a protein G surface for capturing (RL˜100 Ru). To test binding between hAng2 and the captured peptibody, 0.3 nM to 40 nM of huAng2 was injected over the captured peptibody surfaces, and binding sensorgrams were analyzed using BIAevaluation 3.0 (BIAcore Inc.).

The subject of another data set is Colo-205 tumor. Conditions: for tumor growth vs. vehicle control: from study day 14: 2×Con4-C 350 μg/mouse s.c. twice a week, p<0.0001. As to the method:
Female nude mice were injected subcutaneously with 2×10^6 Colo-205 cells plus Matrigel (2:1) on study day 0. At day 3, the Ang-2 peptibodies L1-7-N, L1-21-N, Con4-C, and 2×Con4-C were administered subcutaneously at the dose of […], twice a week.
Female nude mice were injected subcutaneously with 2×10^6 Colo-205 cells plus Matrigel (2:1) on study day 0.
Female nude mice were injected subcutaneously with 2×10^6 Colo-205 cells plus Matrigel (2:1) on study day 0. At day 3, Ang-2 peptibody 2×Con4-C or control peptibody were administered subcutaneously at the dose of 350 μg/day. Tumors from groups treated with control peptibody (as described in Table 5) were harvested either at Day 14 (size-matched control) or Day 18 (time-matched control). Tumors from 2×Con4(C) treated group were then harvested at Day 18. Tumor volumes were recorded at regular intervals, as shown.
Female nude mice were injected subcutaneously with 2×10^6 Colo-205 cells plus Matrigel (2:1) on study day 0. Treatment with 350 μg/mouse, s.c. twice a week, of the Ang-2 peptibody 2×Con4-C, or equivalent control peptibody started either at study day 3, 10 or 15. […] The results are set forth in FIG. 8 (body weights not shown).
Female nude mice were injected subcutaneously with 2×10^6 Colo-205 cells plus Matrigel (2:1) on study day 0. At study day 14, treatments were started with a) 350 μg/mouse, s.c. twice a week, of the Ang-2 peptibody 2×Con4-C, b) 20 mg/kg qwx3 i.p. of taxotere, or c) a combination of both.
Female nude mice were injected subcutaneously with 2×10^6 Colo-205 cells plus Matrigel (2:1) on study day 0. At study day 14 started treatments with a) 350 μg/mouse, s.c. twice a week, of the Ang-2 peptibody 2×Con4-C, b) 50 mg/kg qdx5 i.p. of 5-FU, or c) a combination of both.

In the next data set the target is T2, hAng-2 (Homo sapiens, UniProt O15123).
T2 construct: conditioned media of human 293T cells transfected with full length human Ang-2 DNA; made in house; host or cells: conditioned media
T2 sequence (O15123 19-496): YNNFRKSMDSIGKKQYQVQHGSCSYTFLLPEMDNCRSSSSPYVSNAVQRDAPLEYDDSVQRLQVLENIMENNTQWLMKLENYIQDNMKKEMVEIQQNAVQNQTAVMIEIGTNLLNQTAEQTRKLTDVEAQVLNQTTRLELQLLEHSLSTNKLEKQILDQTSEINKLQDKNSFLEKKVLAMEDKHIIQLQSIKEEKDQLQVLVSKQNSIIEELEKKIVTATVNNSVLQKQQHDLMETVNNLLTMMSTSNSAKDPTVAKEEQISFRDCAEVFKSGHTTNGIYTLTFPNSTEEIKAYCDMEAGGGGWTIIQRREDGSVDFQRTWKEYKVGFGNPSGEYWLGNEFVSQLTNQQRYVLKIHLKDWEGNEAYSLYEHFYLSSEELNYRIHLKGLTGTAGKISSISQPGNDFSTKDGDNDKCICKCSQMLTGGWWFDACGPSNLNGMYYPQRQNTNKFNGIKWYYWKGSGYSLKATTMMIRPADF
As to the kind of experiment: Affinity BIAcore (Example 2). Format: binding. The conditions noted are these: Table 6. As to the method: (§1) Binding assays were carried out by first capturing about 100 Ru of each candidate anti-Ang-2 peptibody to the immobilized Protein G, after which various concentrations (0-100 nM) of huAng-2 or mAng-2 were injected over the bound antibody surface at a flow rate of 50 μl/min for 3 minutes. Peptibody binding kinetic parameters including ka (association rate constant), kd (dissociation rate constant) and KD (dissociation equilibrium constant) were determined using the BIA evaluation 3.1 computer program (Biacore, Inc.). Lower dissociation equilibrium constants indicated greater affinity of the peptibody for Ang-2.
For orientation: In SPR one partner is held on a chip, and binding of the other changes the refractive index at the surface.

The target of the next data set is T3, mAng-2 (Mus musculus, UniProt O35608).
T3 construct: made in house
T3 sequence (O35608 19-496): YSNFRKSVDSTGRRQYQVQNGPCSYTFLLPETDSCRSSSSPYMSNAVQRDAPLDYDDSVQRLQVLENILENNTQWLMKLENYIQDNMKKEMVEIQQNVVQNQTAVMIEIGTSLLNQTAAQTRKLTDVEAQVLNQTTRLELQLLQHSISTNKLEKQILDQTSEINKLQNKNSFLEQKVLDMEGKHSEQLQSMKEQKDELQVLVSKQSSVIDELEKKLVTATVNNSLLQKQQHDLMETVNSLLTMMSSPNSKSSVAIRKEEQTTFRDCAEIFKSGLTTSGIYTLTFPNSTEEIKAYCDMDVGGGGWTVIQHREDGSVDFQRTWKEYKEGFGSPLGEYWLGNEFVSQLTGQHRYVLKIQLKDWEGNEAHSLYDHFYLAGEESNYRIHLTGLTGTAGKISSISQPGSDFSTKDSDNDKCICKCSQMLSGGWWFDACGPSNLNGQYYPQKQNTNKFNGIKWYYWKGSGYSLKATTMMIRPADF
The data set can be described thus: Affinity BIAcore (Example 2). Format: binding, murine. Conditions: Table 6. How it is done: as §1

Another data set addresses T4, hAng-1 (Homo sapiens, UniProt Q15389).
T4 sequence (Q15389 16-498): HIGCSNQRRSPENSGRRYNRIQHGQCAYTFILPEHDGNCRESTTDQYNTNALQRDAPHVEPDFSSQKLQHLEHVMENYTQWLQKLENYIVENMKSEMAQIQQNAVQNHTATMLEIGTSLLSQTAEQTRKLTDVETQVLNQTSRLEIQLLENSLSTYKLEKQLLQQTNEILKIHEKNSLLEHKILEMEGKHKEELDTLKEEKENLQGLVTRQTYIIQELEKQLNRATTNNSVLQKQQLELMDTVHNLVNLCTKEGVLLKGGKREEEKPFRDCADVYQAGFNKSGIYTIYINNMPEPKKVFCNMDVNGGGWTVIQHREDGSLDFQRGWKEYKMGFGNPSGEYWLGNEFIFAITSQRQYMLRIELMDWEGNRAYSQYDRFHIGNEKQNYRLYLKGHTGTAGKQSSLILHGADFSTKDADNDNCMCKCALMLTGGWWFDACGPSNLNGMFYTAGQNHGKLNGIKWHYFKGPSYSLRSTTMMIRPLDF
As to the kind of experiment: Neutralization ELISA (Example 2). Format: binding. Conditions: Table 5; about 1 nM Tie-2-Fc. A general note: ELISA stands for enzyme-linked immunosorbent assay.

Where two headings read alike, the source gives them in different places. Primed or numbered codes have the meaning given here. Where no end group is shown, it is not given here. [ ]: non-standard residue; d: D form. Fc(6) = Fc vehicle: non-antigen-binding antibody fragment (from proteolytic digestion of an antibody) fused to the peptide; Fc(8) = Fc vehicle: non-antigen-binding antibody fragment fused to the peptide (peptibody); Fc(5) = non-antigen-binding fragment of an antibody (vehicle) fused to the peptide; Fc(9) = antibody Fc fragment, the non-antigen-binding fragment

Regarding “MGAQ-QKFQPLDELEQTLYEQFMLQQA LEGGGGG-Fc (MGAQQKFQPLDELEQTLYEQFMLQQALEGGGGG[Fc]; also: Fc vehicle domain fused (peptibody)) [L1-10 (N)]”, in the data set with huAng2, the ka was determined as 150000 M⁻¹ s⁻¹ and the kd stood at 0.00011 s⁻¹.

In the data set with huAng2, “MGAQ-TNFMPMDDLEQRLYEQFILQQG-LEGGGGG-Fc (MGAQTNFMPMDDLEQRLYEQFILQQGLEGGGGG-Fc) [L1-7 (N)]” came in with a ka of 370000 M⁻¹ s⁻¹ and a kd of 8.7e-05 s⁻¹.

On to `O=c1[nH]cc(F)c(=O)[nH]1` [Peptibody 5-FU, 5-FU, reference compound], for which the “tumor growth vs. vehicle control” value in the data set with Colo-205 tumor (Example 19b, 5-FU 50 mg/kg qdx5 i.p., or both) is on record as “Significant differences in tumor growth”. Also, the “transient reduction in body weight” value in the data set with Colo-205 tumor (Example 19b, at study day 20, followed by complete recovery) turned out to be 18%.

In the case of `CC(=O)O[C@@]12CO[C@@H]1C[C@H](O)[C@@]1(C)C(=O)[C@H](O)C3=C(C)[C@@H](OC(=O)[C@H](O)[C@@H](NC(=O)OC(C)(C)C)c4ccccc4)C[C@@](O)([C@@H](OC(=O)c4ccccc4)[C@H]21)C3(C)C` [taxotere, reference compound], the “tumor growth vs. vehicle control” value in the data set with Colo-205 tumor (Example 19a, taxotere 20 mg/kg qwx3 i.p., or both) was “Significant differences in tumor growth”.

As to “MGAQKFNPLDELEETLYEQFTFQQLEGGGGG-Fc [L1 (N)]”, in the data set with hAng-2, the hAng-2 ka stood at 290000 M⁻¹ s⁻¹ and the hAng-2 kd is 0.00091 s⁻¹. Moreover, in the data set with mAng-2, the mAng-2 ka was found to be 560000 M⁻¹ s⁻¹ and the mAng-2 kd was determined as 0.00023 s⁻¹. Besides, in the data set with hAng-1, the “hAng-1 IC 50” value is reported as “No In-”.

For the compound “MGAQ-QYGCDGFLYGCMINLE-GGGGG-Fc (MGAQQYGCDGFLYGCMINLEGGGGG-{Fc(9)}; not fully specified (bridges); printed as MGAQ-QYGCDGFLYGCMINLE-GGGGG-Fc; cysteine pairing not given here) [C17 (N)]”, the “hAng-1 IC 50” value with hAng-1 is given as “No In-”.

For “MGAQ-HTFQPLDELEETLYYQWLYDQL LEGGGGG-Fc (MGAQHTFQPLDELEETLYYQWLYDQLLEGGGGG[Fc]; also: Fc vehicle domain fused (peptibody)) [L1-21 (N)]”, in the data set with huAng2, the ka was 560000 M⁻¹ s⁻¹ and the kd was determined as 0.00014 s⁻¹.

Regarding “MGAQ-FDYCEGVEDPFTFGCDNHLE-GGGGG-Fc (MGAQFDYCEGVEDPFTFGCDNHLEGGGGG[Fc(6)]; cysteine pairing not given here) [12-9 (N)]”, in the data set with hAng-2, the hAng-2 ka came out at 120000 M⁻¹ s⁻¹ and the hAng-2 kd worked out at 0.001 s⁻¹. In the data set with mAng-2, this compound registered a mAng-2 ka of 720000 M⁻¹ s⁻¹ and a mAng-2 kd of 0.00023 s⁻¹. The “hAng-1 IC 50” value with hAng-1 is recorded as “No In-”.

For “M-Fc-GGGGGAQ-PIRQEECDWDPWTCEHMWEV-LE (M[Fc(8)]GGGGGAQPIRQEECDWDPWTCEHMWEVLE; cysteine pairing not given here; also: Fc vehicle fused at position 2) [Con4-44 (C)]”, in the data set with huAng2, the ka came out at 290000 M⁻¹ s⁻¹ and the kd worked out at 5.9e-05 s⁻¹.

On to “MGAQ-KRPCEEMWGGCNYDLEGGGGG-Fc (MGAQKRPCEEMWGGCNYDLEGGGGG[Fc(5)]; not fully specified (bridges); printed as MGAQ-KRPCEEMWGGCNYDLEGGGGG-Fc; cysteine pairing not given here) [8-8 (N)]”, for which the “hAng-1 IC 50” value in the data set with hAng-1 is reported as “No In-”.

As to “MGAQ-HQICKWDPWTCKHWLEGGGGG-Fc (MGAQHQICKWDPWTCKHWLEGGGGG[Fc(5)]; not fully specified (bridges); printed as MGAQ-HQICKWDPWTCKHWLEGGGGG-Fc; cysteine pairing not given here) [8-14 (N)]”, the “hAng-1 IC 50” value in the data set with hAng-1 is “No In-”.

In the case of “MGAQ-KRPCEEIFGGCTYQLEGGGGG-Fc (MGAQKRPCEEIFGGCTYQLEGGGGG[Fc(5)]; not fully specified (bridges); printed as MGAQ-KRPCEEIFGGCTYQLEGGGGG-Fc; cysteine pairing not given here) [Con1 (N)]”, in the data set with hAng-1, the “hAng-1 IC 50” value is given as “No In-”.
